Test results published in article PMC3538150 (Cell reports, 2012).
Where no end group is shown, it is not given here.

T1: DNA ligase IV DNA binding domain (LigIV-DBD; residues 1-240), wild type (human, UniProt P49917 1-240)
T1 sequence (looked up): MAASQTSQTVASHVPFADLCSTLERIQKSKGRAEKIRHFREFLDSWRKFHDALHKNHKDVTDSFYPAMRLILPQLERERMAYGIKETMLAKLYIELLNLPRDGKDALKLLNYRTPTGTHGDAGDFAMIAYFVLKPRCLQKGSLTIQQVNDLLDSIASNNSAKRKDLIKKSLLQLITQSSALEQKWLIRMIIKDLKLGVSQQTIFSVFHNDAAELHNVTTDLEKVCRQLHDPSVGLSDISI

T2: LigIV-DBD D18H (human, UniProt P49917 1-240, D18H)
T2 sequence (looked up): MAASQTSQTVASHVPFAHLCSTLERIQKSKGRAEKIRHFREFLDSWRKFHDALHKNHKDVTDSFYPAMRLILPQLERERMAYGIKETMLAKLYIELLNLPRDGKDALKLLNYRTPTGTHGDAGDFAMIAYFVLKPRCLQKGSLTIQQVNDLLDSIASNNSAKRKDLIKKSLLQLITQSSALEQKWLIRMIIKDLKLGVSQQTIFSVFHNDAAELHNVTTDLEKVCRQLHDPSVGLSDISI

T3: LigIV-DBD V14A (human, UniProt P49917 1-240, V14A)
T3 sequence (looked up): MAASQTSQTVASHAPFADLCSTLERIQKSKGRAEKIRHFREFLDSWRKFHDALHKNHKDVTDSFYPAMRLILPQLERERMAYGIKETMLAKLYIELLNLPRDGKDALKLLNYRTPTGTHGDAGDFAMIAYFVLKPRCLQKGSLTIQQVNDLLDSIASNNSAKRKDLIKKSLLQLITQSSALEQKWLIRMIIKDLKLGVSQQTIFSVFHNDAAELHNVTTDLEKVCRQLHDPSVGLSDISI


What was measured:
[1] = target: T1, DNA ligase IV DNA binding domain …; assay: fluorescence polarisation
[2] = target: T1, DNA ligase IV DNA binding domain …; assay: ITC
LigIV-DBD D18H = target: T2, LigIV-DBD D18H; assay: ITC
LigIV-DBD V14A = target: T3, LigIV-DBD V14A; assay: ITC

| binding result [1] | Kd [2] | stoichiometry N [2] | Kd (LigIV-DBD D18H) | Kd (LigIV-DBD V14A) | Binder |
| --- | --- | --- | --- | --- | --- |
| binds | – | – | – | – | DVPQWEVFFKR (also: 6-FAM label, position not given here) [6-FAM (6-carboxyfluorescein) labeled cArt-Pep] |
| – | 4.8 µM | 1 ± 0.1 | 9.1 µM | 13.6 µM | DVPQWEVFFKR [cArt-Pep, peptide derived from the Artemis C-terminal region (485-DVPQWEVFFKR-495)] |
